Among the data in paper PMC4788435 (2016) are ratio to parent values, retold here.

B1: human NEK8-GFP wild type [human] / Flag-ANKS6 [not stated] (parent complex)
chain 1: MEKYERIRVVGRGAFGIVHLCLRKADQKLVIIKQIPVEQMTKEERQAAQNECQVLKLLNHPNVIEYYENFLEDKALMIAMEYAPGGTLAEFIQKRCNSLLEEETILHFFVQILLALHHVHTHLILHRDLKTQNILLDKHRMVVKIGDFGISKILSSKSKAYTVVGTPCYISPELCEGKPYNQKSDIWALGCVLYELASLKRAFEAANLPALVLKIMSGTFAPISDRYSPELRQLVLSLLSLEPAQRPPLSHIMAQPLCIRALLNLHTDVGSVRMRRAEKSVAPSNTGSRTTSVRCRGIPRGPVRPAIPPPLSSVYAWGGGLGTPLRLPMLNTEVVQVAAGRTQKAGVTRSGRLILWEAPPLGAGGGSLLPGAVEQPQPQFISRFLEGQSGVTIKHVACGDFFTACLTDRGIIMTFGSGSNGCLGHGSLTDISQPTIVEALLGYEMVQVACGASHVLALSTERELFAWGRGDSGRLGLGTRESHSCPQQVPMPPGQEAQRVVCGIDSSMILTVPGQALACGSNRFNKLGLDHLSLGEEPVPHQQVEEALSFTLLGSAPLDQEPLLSIDLGTAHSAAVTASGDCYTFGSNQHGQLGTNTRRGSRAPCKVQGLEGIKMAMVACGDAFTVAIGAESEVYSWGKGARGRLGRRDEDAGLPRPVQLDETHPYTVTSVSCCHGNTLLAVRSVTDEPVPP
chain 2: MGEGGLPPAFQLLLRACDQGDTETARRLLEPGAAEPAERGAEPEAGAEPAGAEVAGPGAAAAGAVGAPVPVDCSDEAGNTALQFAAAGGHEPLVRFLLRRGASVNSRNHYGWSALMQAARFGHVSVAHLLLDHGADVNAQNRLGASVLTVASRGGHLGVVKLLLEAGAFVDHHHPSGEQLGLGGSRDEPLDITALMAAIQHGHEAVVRLLMEWGADPNHAARTVGWSPLMLAALTGRLGVAQQLVEKGANPDHLSVLEKTAFEVALDCKHRDLVDYLDPLTTVRPKTDEEKRRPDIFHALKMGNFQLVKEIADEDPSHVNLVNGDGATPLMLAAVTGQLALVQLLVERHADVDKQDSVHGWTALMQATYHGNKEIVKYLLNQGADVTLRAKNGYTAFDLVMLLNDPDTELVRLLASVCMQVNKDKGRPSHQPPLPHSKVRQPWSIPVLPDDKGGLKSWWNRMSNRFRKLKLMQTLPRGLSSNQPLPFSDEPEPALDSTMRAAPQDKTSRSALPDAAPVTKDNGPGSTRGEKEDTLLTTMLRNGAPLTRLPSDKLKAVIPPFLPPSSFELWSSDRSRTRHNGKADPMKTALPQRASRGHPVGGGGTDTTPVRPVKFPSLPRSPASSANSGNFNHSPHSSGGSSGVGVSRHGGELLNRSGGSIDNVLSQIAAQRKKAAGLLEQKPSHRSSPVGPAPGSSPSELPASPAGGSAPVGKKLETSKRPPSGTSTTSKSTSPTLTPSPSPKGHTAESSVSSSSSHRQSKSSGGSSSGTITDEDELTGILKKLSLEKYQPIFEEQEVDMEAFLTLTDGDLKELGIKTDGSRQQILAAISELNAGKGRERQILQETIHNFHSSFESSASNTRAPGNSPCA

In the assay the parent is B1. Briefly: co-immunoprecipitation (anti-GFP IP, western blot band quantification); HEK293T cell lysates co-expressing NEK8-GFP and Flag-ANKS6; parent: 1; read off a plot. On the technique in general: Immunoblotting shows a protein as a band on a membrane.
For chain 1 R602W, the ratio to parent is roughly 0.95.
To chain 1 G580S belongs roughly 0.97; to chain 1 H425Y, roughly 1; to chain 1 T87A, roughly 0.42.
